The target in series [1] is T1, human cdc25 A (GST fusion protein) (Homo sapiens, UniProt P30304).
T1 construct: A plasmid containing the entire open reading frame of human cdc25 A was digested with Ncol (at amino acid 1); made in house; host or cells: E. coli (bacteria)
T1 sequence (P30304 1-524): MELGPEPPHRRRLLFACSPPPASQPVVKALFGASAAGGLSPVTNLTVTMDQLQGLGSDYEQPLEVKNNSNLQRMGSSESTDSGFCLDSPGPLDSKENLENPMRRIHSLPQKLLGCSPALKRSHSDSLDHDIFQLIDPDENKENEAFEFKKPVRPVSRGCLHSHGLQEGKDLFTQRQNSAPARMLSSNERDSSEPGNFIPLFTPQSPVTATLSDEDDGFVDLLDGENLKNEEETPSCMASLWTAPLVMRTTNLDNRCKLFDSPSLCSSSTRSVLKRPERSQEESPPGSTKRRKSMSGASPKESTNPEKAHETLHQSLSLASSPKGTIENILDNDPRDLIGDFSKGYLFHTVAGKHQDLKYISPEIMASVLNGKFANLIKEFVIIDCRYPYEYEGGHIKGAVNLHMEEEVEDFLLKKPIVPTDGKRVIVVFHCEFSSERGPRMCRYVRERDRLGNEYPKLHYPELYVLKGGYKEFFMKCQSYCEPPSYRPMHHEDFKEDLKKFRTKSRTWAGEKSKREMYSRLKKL
The experiment in a line: cdc25 A tyrosine phosphatase assay with 32P-RCML substrate. It counts as biochemical. The method, then:
A plasmid containing the entire open reading frame of human cdc25 A was digested with Ncol (at amino acid 1), blunt ended with T4 DNA polymerase, heat inactivated, extracted with phenolchlorophorm, ethanol precipitated and digested with EcoRI. The resultant 2.0 kb fragment was gel-purified and ligated into pGEX-2T Smal/EcoRI digested vector. Resultant plasmid upon transformation into bacteria gave rise to a 90 kd IPTG-inducible protein. […] Absorbance at 410 nm was determined using a molar absorptivity of 1.78×10^4M^−1 cm^−1 to calculate the concentration of the p-nitrophenolate ion generated in the assay. […]
Reduced carboxamidomethylated and maleylated lysozyme (RCML) was obtained from N. Tonks in a ^32P-tyrosine phosphorylated form. […] Reactions ([…]) were performed at 30° C. for 10 or 20 min, and after addition of the fatty acid free bovine serum albumin (BSA, Sigma) to 2 mg/ml, proteins were precipitated with […] of 20% trichloroacetic acid, vortexed, incubated at −70° C. for 5 min, thawed, spun in an Eppendorf centrifuge for 5–10 min at the maximal speed and […] supernatants were counted in 2 ml Aquasol (NEN) for 10 min. […]

For series [2], the target named is T2, human cdc25 B (GST fusion protein) (Homo sapiens, UniProt P30305).
T2 construct: An 2.4 kb Smal fragment from the p4×1.2 plasmid encoding amino acids 32–566 was subcloned; made in house; host or cells: E. coli (bacteria)
T2 sequence (P30305 32-566 isoform P30305-2): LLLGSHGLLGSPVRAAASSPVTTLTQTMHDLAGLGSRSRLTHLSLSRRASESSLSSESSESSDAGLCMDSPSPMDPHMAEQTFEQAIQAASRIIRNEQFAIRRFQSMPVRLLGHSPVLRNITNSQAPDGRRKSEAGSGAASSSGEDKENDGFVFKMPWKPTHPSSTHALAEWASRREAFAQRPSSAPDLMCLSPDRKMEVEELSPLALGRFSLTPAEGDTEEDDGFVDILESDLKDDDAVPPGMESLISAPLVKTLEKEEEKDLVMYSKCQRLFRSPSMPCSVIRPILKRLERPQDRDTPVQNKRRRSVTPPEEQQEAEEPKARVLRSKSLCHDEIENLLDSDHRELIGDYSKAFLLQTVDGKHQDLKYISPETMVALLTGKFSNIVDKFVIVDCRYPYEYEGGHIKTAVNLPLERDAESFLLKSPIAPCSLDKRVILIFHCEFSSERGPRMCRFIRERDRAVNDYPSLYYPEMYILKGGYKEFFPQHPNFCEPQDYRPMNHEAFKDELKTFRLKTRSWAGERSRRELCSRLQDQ
The experiment in a line: cdc25 B tyrosine phosphatase assay, pH 8.8. It counts as biochemical. Particulars: p13 at 25 mM, in the presence or absence of cyclin B.

B1: D: murine cyclin D1 (CYL1) expressed as fusion protein with GST (protein)
chain: MEHQLLCCEVETIRRAYPDTNLLNDRVLRAMLKTEETCAPSVSYFKCVQKEIVPSMRKIVATWMLEVCEEQKCEEEVFPLAMNYLDRFLSLEPLKKSRLQLLGATCMFVASKMKETIPLTAEKLCIYTDNSIRPEELLQMELLLVNKLKWNLAAMTPHDFIEHFLSKMPEADENKQTIRKHAQTFVALCATDVKFISNPPSMVAAGSVVAAMQGLNLGSPNNFLSCYRTTHFLSRVIKCDPDCLRACQEQIEALLESSLRQAQQNVDPKATEEEGEVEEEAGLACTPTDVRDVDI
modifications: left off: a dimerising Fc or GST
As to B1, the “effect on the endogenous phosphatase activity of cdc25 A” value in series [1] (RCML substrate, 10 pmoles of cyclin and cdc25 protein) was “neither stimulatory nor inhibitory effect”.

B2: p13: p13 protein encoded by the suc1 gene, an essential subunit of the cdc2 protein kinase (protein)
chain: MSKSGVPRLLTASERERLEPFIDQIHYSPRYADDEYEYRHVMLPKAMLKAIPTDYFNPETGTLRILQEEEWRGLGITQSLGWEMYEVHVPEPHILLFKREKDYQMKFSQQRGG
As to B2, the “effect on the activity of cdc25 B” value in series [2] was “no effect”. Moreover, the “inhibition of the endogenous phosphatase activity of cdc25 A” value in series [1] (p13 at 25 mM, without cyclin B1) is reported as 2–3 fold.

For the origin of these results see patent US7005258B1, “Cdc25 genes, encoded products and uses thereof” (The National Institutes of Health, priority 1991, dated 2006).
